The values that follow come from patent publication US10052364B2, “Osteocalcin as a treatment for cognitive disorders” (THE TRUSTEES OF COLUMBIA UNIVERSITY IN THE CITY OF NEW YORK, priority 2013, dated 2018).

No end group written: not given here.

The subject of data set [1] is mouse primary hindbrain neurons (MPHN). Description: Calcium flux in primary hindbrain neurons. In kind it is cell-based. To be noted: MPHN treated with undercarboxylated or carboxylated osteocalcin. Here is the method:
For calcium imaging, primary hindbrain neurons seeded on 12 mm coverslips were allowed the appropriate time to form structural networks. These cultures were washed with HBSS and loaded with 2.5 μM FURA-2, AM calcium indicator for 45 minutes at room temperature, according to the manufacturer's protocol. Cells were then washed to remove excess indicator and incubated for 30 minutes to allow internalized esters to become de-esterified. 30 ng/ml of osteocalcin was prepared with the control buffer of 1×HBBS supplemented with 10 mM HEPES buffer and 2 mM CaCl2. Using a Zeiss microscope with a perfusion system, coverslips were first perfused with control and osteocalcin. After each stimulation, cells were depolarized with 50 mM KCl to determine the percentage of live cells being imaged. All treatments were recorded using two-photon laser scanning microscopy by Prairie Technologies and analyzed by Z axis profile plotting using ImageJ.
To determine if osteocalcin acts directly on neurons to modulate neurotransmitter synthesis, several types of assays were performed. First, brainstem and midbrain explants from WT and Gprc6a^−/− mice were generated. […] Third, to further confirm that osteocalcin signals in neurons of the hindbrain, calcium flux in MPHN treated with undercarboxylated or carboxylated osteocalcin (FIG. 3F) was measured. […]
(Calcium flux is commonly read through the fluorescence of an indicator in the cells.)

A short description of data set [2]: Positive control for blood brain barrier crossing: subcutaneous leptin infusion in ob/ob mice, content measured in brain. To be noted: subcutaneous infusion 50 ng/hour, seven days, 3 month-old ob/ob mice. In kind it is in vivo, mouse. Here is the method:
FIG. 3. Osteocalcin binds to neurons in the brain. (A) Measurement of the total osteocalcin in 3 month-old Osteocalcin^−/− mice infused subcutaneously for 7 days with either uncarboxylated osteocalcin (300 ng/hour, right panel) or PBS (left panel). Osteocalcin levels were measured in bone, serum, and different parts of the brain (cortex, midbrain, hypothalamus, brainstem, and cerebellum). (B) Subcutaneous infusion of leptin ([…], right panel) or PBS (left panel) for 7 days in ob/ob mice. Leptin levels were measured in serum, cortex, midbrain, hypothalamus, brainstem, and cerebellum. […]
Osteocalcin^−/−, Gprc6a^−/−, Osteocalcin-mCherry, and Osteocalcin floxed mice have been previously described (Ducy et al., 1996, Nature 382:448-452; Oury et al., 2011, Cell 144:796-809). Mouse genotypes were determined by PCR. […] Leptin and osteocalcin content in sera and tissues were determined by ELISA.
To understand how this behavioral phenotype develops, whether osteocalcin crosses the blood brain barrier (BBB) was tested by installing pumps that subcutaneously delivered vehicle or uncarboxylated osteocalcin (50 ng/hour) in three-month-old Osteocalcin^−/− mice. […] Seven days later, osteocalcin and leptin content were measured in blood, bone, and in various parts of the brain in Osteocalcin−/− and ob/ob mice, respectively. […]

Data set [3] has as its system brainstem and midbrain explants from WT and Gprc6a-/- mice. Description: Gene expression (qPCR) in brainstem and midbrain explants. It is filed as cell-based, mouse. To be noted: leptin, WT or Gprc6a-/- brainstem explants. Here is the method:
For gene expression studies, RNA was isolated from primary neurons or tissue using TRIZOL® (Invitrogen). cDNA synthesis was performed following a standard protocol from Invitrogen and qPCR analyses were done using specific quantitative PCR primers from SABiosciences (www.sabiosciences.com/RT2PCR.php).
Brains were dissected and incubated for 30 minutes in ice cold oxygenated artificial cerebrospinal fluid (ACSF). Brains were then sliced at 500 μm at the midbrain, −1.55 to −2.35 mm from the bregma, and at the level of the brainstem, from −4.04 to −4.48 mm and from −4.60 to −5.20 mm from the bregma, to include the median and dorsal raphe, respectively. These slices were incubated in ACSF for 1 h, constantly oxygenated (95% 02 and 5% CO2) for 4 h, after which they were treated with either osteocalcin (10 ng/ml) or PBS for four hours. Expression of Tph2, TH, GAD1, GAD2, and Ddc was measured by qPCR.
To determine if osteocalcin acts directly on neurons to modulate neurotransmitter synthesis, several types of assays were performed. First, brainstem and midbrain explants from WT and Gprc6a^−/− mice were generated. Brains were sliced (500 μm) at the level of the median and dorsal raphe of the brainstem (from −4.04 to −4.48 mm and from −4.60 to −5.20 mm, respectively), so that they would be enriched in serotonin-producing neurons, as well as at the level of substantia nigrae and ventral tegmental areas (VTA) of the midbrain (from −1.55 to −2.35 mm and from −2.55 to −3.25 mm, respectively). Enrichment in serotoninergic and catecholaminergic neurons in these explants was verified by their high Tph2 and Th expression. While leptin, used here as a positive control, reduced, as it should, Tph2 expression in WT or Gprc6a^−/− brainstem explants, osteocalcin (3 ng/ml) increased expression of this gene 2.5 fold in both WT and Gprc6a^−/− explants. (FIG. 3D). Additionally, osteocalcin increased Th expression in midbrain explants and decreased Gad1 expression in both WT and in Gprc6a^−/− hindbrain explants (FIG. 3D). Second, the cultured WT and Gprc6a^−/− mouse primary hindbrain neurons (MPHN) were treated with osteocalcin (3 ng/ml). […] Third, to further confirm that osteocalcin signals in neurons of the hindbrain, calcium flux in MPHN treated with undercarboxylated or carboxylated osteocalcin (FIG. 3F) was measured. […] Moreover, osteocalcin inhibits the action potential frequency of the GABAergic interneurons of the hindbrain (FIG. 3H).

On to “carboxylated osteocalcin: Carboxylated (Gla) form of osteocalcin used as comparison in the calcium flux assay (YLGASVPSPDPLEPTREQCELNPACDELSDQYGLKTAYKRIYGITI; ends and bridges not checked; also: gamma-carboxylated (Gla) form, places not given here; UniProt P86546 50-95, looked up) [reference compound]”, for which the “calcium fluxes in primary hindbrain neurons” value in data set [1] was “not”.

B1: leptin: adipocyte-derived hormone, positive control known to cross the BBB (protein, UniProt P41160 22-167, looked up)
Leptin: VPIQKVQDDTKTLIKTIVTRINDISHTQSVSAKQRVTGLDFIPGLHPILSLSKMDQTLAVYQQVLTSLPSQNVLQIANDLENLRDLLHLLAFSKSCSLPQTSGLQKPESLDGVLEASLYSTEVVALSRLQGSLQDILQQLDVSPEC
As for B1, in data set [2], the “leptin content in parts of the brain” value is “could be detected in the brainstem and hypothalamus”. The “Tph2 expression in brainstem explants (positive control)” value in data set [3] is “reduced”.
